Patent publication US20240173377A1 (EPIVAX, published 2024)

How the values were obtained:
Assay in all cases: competition HLA binding assay: soluble HLA, labeled control peptide, capture on anti-human DR antibody, time-resolved fluorescence
[1] = target: T1, HLA DRB1*0301 (human)
T1 construct: Described only as a soluble HLA molecule; also called soluble HLA molecule

[2] = target: T2, HLA DRB1*0101 (human)
T2 construct: Described only as a soluble HLA molecule; also called soluble HLA molecule

[3] = target: T3, HLA DRB1*0701 (human)
T3 construct: Described only as a soluble HLA molecule; also called soluble HLA molecule

[4] = target: T4, HLA DRB1*1301 (human)
T4 construct: Described only as a soluble HLA molecule; also called soluble HLA molecule

[5] = target: T5, HLA DRB1*0401 (human)
T5 construct: Described only as a soluble HLA molecule; also called soluble HLA molecule

[6] = target: T6, HLA DRB1*1101 (human)
T6 construct: Described only as a soluble HLA molecule; also called soluble HLA molecule

Measured: binding result

B1: SEQ ID NO 115 (peptide)
peptide: ILTIHFTGHSFIYGK
notes: L-amino acid Tregitope, assayed alongside its retro-inverso counterpart
binds: all assays above

B2: SEQ ID NO 114 (peptide)
peptide: EEQYNSTYTVVSVLTVLHQD
notes: as for B1
binds: all assays above
